Measurements as given in publication PMC6325770.

Molecular target: enhanced green fluorescent protein-labelled G-protein-coupled receptor kinase-interacting protein 1 (GIT1) (UniProt Q9Y2X7)
Test: MST; enhanced green fluorescent protein-labelled GIT1 in human embryonic kidney 293 cell lysate at constant 20 nmol/L, serial dilution of purified CLIC4; Monolith NT.115

UniProt Q9Y2X7, sequence (Q9Y2X7 whole entry): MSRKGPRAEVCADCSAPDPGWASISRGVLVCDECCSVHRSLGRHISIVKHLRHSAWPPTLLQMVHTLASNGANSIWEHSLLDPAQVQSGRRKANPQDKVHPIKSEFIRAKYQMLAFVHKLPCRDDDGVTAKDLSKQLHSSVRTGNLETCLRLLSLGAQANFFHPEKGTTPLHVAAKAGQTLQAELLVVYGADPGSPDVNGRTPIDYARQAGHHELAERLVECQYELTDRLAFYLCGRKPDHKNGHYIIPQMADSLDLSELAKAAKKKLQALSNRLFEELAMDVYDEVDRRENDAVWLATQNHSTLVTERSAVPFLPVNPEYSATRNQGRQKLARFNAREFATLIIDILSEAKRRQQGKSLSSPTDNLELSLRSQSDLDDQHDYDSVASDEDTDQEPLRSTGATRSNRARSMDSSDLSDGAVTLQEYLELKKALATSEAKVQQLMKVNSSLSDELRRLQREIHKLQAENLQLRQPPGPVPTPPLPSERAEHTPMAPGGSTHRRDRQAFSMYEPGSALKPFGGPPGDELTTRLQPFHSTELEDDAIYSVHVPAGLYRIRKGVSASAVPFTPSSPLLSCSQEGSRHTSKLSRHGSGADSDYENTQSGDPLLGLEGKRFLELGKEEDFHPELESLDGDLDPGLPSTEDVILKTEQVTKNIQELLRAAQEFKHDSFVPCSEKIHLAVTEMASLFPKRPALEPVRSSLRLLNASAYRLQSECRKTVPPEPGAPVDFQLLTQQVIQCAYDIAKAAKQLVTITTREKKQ

Kd: 1.8 µM
Substance: purified CLIC4 (ab104744; Abcam) (from UniProt Q9Y696 1-253) (natural protein)
